From patent publication US20260242735A1 (UNIVERSIT T BASEL, published 2026)

Legend:
human CD33 A65S = human CD33 A65S (human, UniProt P20138 18-364); experiment: alanine scan, flow cytometry;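 note: HEK293-T cells transiently expressing single-residue alanine mutants of CD33 (alanine swapped to serine), antibody binding read by fluorescence in duplicate, background-subtracted, expressed relative to wild-type CD33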
human CD33 S54A = human CD33 S54A (human, UniProt P20138 18-364); experiment: alanine scan, flow cytometry;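 note: HEK293-T cells transiently expressing single-residue alanine mutants of CD33 (alanine swapped to serine), antibody binding read by fluorescence in duplicate, background-subtracted, expressed relative to wild-type CD33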
human CD33 C36A = human CD33 C36A (human, UniProt P20138 18-364); experiment: alanine scan, flow cytometry;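 note: HEK293-T cells transiently expressing single-residue alanine mutants of CD33 (alanine swapped to serine), antibody binding read by fluorescence in duplicate, background-subtracted, expressed relative to wild-type CD33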
human CD33 C36A, sequence (P20138 18-364 C36A limits assumed): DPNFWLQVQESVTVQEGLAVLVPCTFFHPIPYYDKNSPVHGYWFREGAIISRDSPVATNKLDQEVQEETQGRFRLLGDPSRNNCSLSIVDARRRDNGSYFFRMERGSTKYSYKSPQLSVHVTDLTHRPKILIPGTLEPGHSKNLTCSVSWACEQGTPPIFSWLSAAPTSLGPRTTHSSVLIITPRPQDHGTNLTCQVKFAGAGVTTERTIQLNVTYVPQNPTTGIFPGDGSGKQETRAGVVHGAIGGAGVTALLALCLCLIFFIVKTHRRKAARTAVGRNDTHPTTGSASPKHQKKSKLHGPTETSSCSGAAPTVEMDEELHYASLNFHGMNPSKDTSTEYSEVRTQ

human CD33 Y50A = human CD33 Y50A (human, UniProt P20138 18-364); experiment: alanine scan, flow cytometry;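 note: HEK293-T cells transiently expressing single-residue alanine mutants of CD33 (alanine swapped to serine), antibody binding read by fluorescence in duplicate, background-subtracted, expressed relative to wild-type CD33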
human CD33 Y50A, sequence (P20138 18-364 Y50A limits assumed): as the sequence (P20138 18-364 C36A limits assumed) above, with A19C, Y33A counted along it

human CD33 T75A = human CD33 T75A (human, UniProt P20138 18-364); experiment: alanine scan, flow cytometry
human CD33 L35A = human CD33 L35A (human, UniProt P20138 18-364); experiment: alanine scan, flow cytometry
human CD33 V73A = human CD33 V73A (human, UniProt P20138 18-364); experiment: alanine scan, flow cytometry
human CD33 L23A = human CD33 L23A (human, UniProt P20138 18-364); experiment: alanine scan, flow cytometry
human CD33 L23A, sequence (P20138 18-364 L23A limits assumed): as the sequence (P20138 18-364 C36A limits assumed) above, with L6A, A19C counted along it

human CD33 R89A = human CD33 R89A (human, UniProt P20138 18-364); experiment: alanine scan, flow cytometry
human CD33 Q26A = human CD33 Q26A (human, UniProt P20138 18-364); experiment: alanine scan, flow cytometry
human CD33 Q26A, sequence (P20138 18-364 Q26A limits assumed): as the sequence (P20138 18-364 C36A limits assumed) above, with Q9A, A19C counted along it

human CD33 S71A = human CD33 S71A (human, UniProt P20138 18-364); experiment: alanine scan, flow cytometry
human CD33 P72A = human CD33 P72A (human, UniProt P20138 18-364); experiment: alanine scan, flow cytometry
human CD33 F44A = human CD33 F44A (human, UniProt P20138 18-364); experiment: alanine scan, flow cytometry
human CD33 L38A = human CD33 L38A (human, UniProt P20138 18-364); experiment: alanine scan, flow cytometry
human CD33 Y49A = human CD33 Y49A (human, UniProt P20138 18-364); experiment: alanine scan, flow cytometry
human CD33 E33A = human CD33 E33A (human, UniProt P20138 18-364); experiment: alanine scan, flow cytometry
human CD33 E27A = human CD33 E27A (human, UniProt P20138 18-364); experiment: alanine scan, flow cytometry
human CD33 E27A, sequence (P20138 18-364 E27A limits assumed): as the sequence (P20138 18-364 C36A limits assumed) above, with E10A, A19C counted along it

human CD33 V25A = human CD33 V25A (human, UniProt P20138 18-364); experiment: alanine scan, flow cytometry
human CD33 D70A = human CD33 D70A (human, UniProt P20138 18-364); experiment: alanine scan, flow cytometry
human CD33 T42A = human CD33 T42A (human, UniProt P20138 18-364); experiment: alanine scan, flow cytometry
human CD33 Q87A = human CD33 Q87A (human, UniProt P20138 18-364); experiment: alanine scan, flow cytometry
human CD33 P48A = human CD33 P48A (human, UniProt P20138 18-364); experiment: alanine scan, flow cytometry
human CD33 F21A = human CD33 F21A (human, UniProt P20138 18-364); experiment: alanine scan, flow cytometry
human CD33 I66A = human CD33 I66A (human, UniProt P20138 18-364); experiment: alanine scan, flow cytometry
human CD33 I66A, sequence (P20138 18-364 I66A limits assumed): as the sequence (P20138 18-364 C36A limits assumed) above, with A19C, I49A counted along it

human CD33 V37A = human CD33 V37A (human, UniProt P20138 18-364); experiment: alanine scan, flow cytometry
human CD33 Q32A = human CD33 Q32A (human, UniProt P20138 18-364); experiment: alanine scan, flow cytometry
human CD33 Q32A, sequence (P20138 18-364 Q32A limits assumed): as the sequence (P20138 18-364 C36A limits assumed) above, with Q15A, A19C counted along it

human CD33 Q83A = human CD33 Q83A (human, UniProt P20138 18-364); experiment: alanine scan, flow cytometry
human CD33 Q83A, sequence (P20138 18-364 Q83A limits assumed): as the sequence (P20138 18-364 C36A limits assumed) above, with A19C, Q66A counted along it

human CD33 Y59A = human CD33 Y59A (human, UniProt P20138 18-364); experiment: alanine scan, flow cytometry
human CD33 Y59A, sequence (P20138 18-364 Y59A limits assumed): as the sequence (P20138 18-364 C36A limits assumed) above, with A19C, Y42A counted along it

human CD33 N76A = human CD33 N76A (human, UniProt P20138 18-364); experiment: alanine scan, flow cytometry
human CD33 D51A = human CD33 D51A (human, UniProt P20138 18-364); experiment: alanine scan, flow cytometry
human CD33 D51A, sequence (P20138 18-364 D51A limits assumed): as the sequence (P20138 18-364 C36A limits assumed) above, with A19C, D34A counted along it

human CD33 L78A = human CD33 L78A (human, UniProt P20138 18-364); experiment: alanine scan, flow cytometry
human CD33 V39A = human CD33 V39A (human, UniProt P20138 18-364); experiment: alanine scan, flow cytometry
human CD33 V39A, sequence (P20138 18-364 V39A limits assumed): as the sequence (P20138 18-364 C36A limits assumed) above, with A19C, V22A counted along it

[1] = target: human CD33 extracellular region N20V (human, UniProt P20138 21-259); experiment: BLI Octet, IgG captured on AHC, CD33 analyte;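 note: CD33 variants and wild type run as analyte at 5, 50 and 500 nM, 700 s association then 1200 s dissociation, buffer-only reference subtracted, global 1:1 fit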
Method: (§1) Human CD33 wt and variants, were used as analyte at 3 different concentrations (500, 50 and 5 nM). Association of the analyte to the antibodies was monitored for 700 s and dissociation of the analyte from the antibodies was monitored for 1200 s. Reference subtraction was performed against buffer only wells. AHC tips were regenerated using 10 mM Glycine-HCl pH 1.7. Data were analyzed with Octet Data Analysis software HT 12.0. Data were fitted to a 1:1 binding model. Kinetic rates ka and kd and response signal were globally fitted.

[2] = target: human CD33 extracellular region F21V (human, UniProt P20138 22-259); experiment: BLI Octet, IgG captured on AHC, CD33 analyte;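 note: CD33 variants and wild type run as analyte at 5, 50 and 500 nM, 700 s association then 1200 s dissociation, buffer-only reference subtracted, global 1:1 fit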
human CD33 extracellular region F21V, sequence (P20138 other isoform, or with tags, fused parts or gaps F21V F21V): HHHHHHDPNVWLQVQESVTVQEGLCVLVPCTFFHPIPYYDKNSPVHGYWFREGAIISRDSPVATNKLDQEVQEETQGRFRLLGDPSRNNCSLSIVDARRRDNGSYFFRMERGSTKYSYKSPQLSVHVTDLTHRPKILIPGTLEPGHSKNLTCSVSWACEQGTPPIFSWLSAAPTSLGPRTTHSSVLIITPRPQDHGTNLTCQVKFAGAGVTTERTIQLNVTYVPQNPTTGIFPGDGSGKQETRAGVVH
Method: as §1

[3] = target: human CD33 extracellular region W22H (human, UniProt P20138 18-259); experiment: BLI Octet, IgG captured on AHC, CD33 analyte;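 note: CD33 variants and wild type run as analyte at 5, 50 and 500 nM, 700 s association then 1200 s dissociation, buffer-only reference subtracted, global 1:1 fit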
Method: as §1

[4] = target: human CD33 extracellular region N20S (human, UniProt P20138 21-259); experiment: BLI Octet, IgG captured on AHC, CD33 analyte;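 note: CD33 variants and wild type run as analyte at 5, 50 and 500 nM, 700 s association then 1200 s dissociation, buffer-only reference subtracted, global 1:1 fit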
human CD33 extracellular region N20S, sequence (P20138 other isoform, or with tags, fused parts or gaps N20S N20S): as the sequence (P20138 other isoform, or with tags, fused parts or gaps F21V F21V) above, with N9S, V10F counted along it
Method: as §1

[5] = target: human CD33 extracellular region Y50S (human, UniProt P20138 18-259); experiment: BLI Octet, IgG captured on AHC, CD33 analyte
Method: as §1

[6] = target: human CD33 extracellular region R119A (human, UniProt P20138 18-259); experiment: BLI Octet, IgG captured on AHC, CD33 analyte
Method: as §1

[7] = target: human CD33 extracellular region F21Q (human, UniProt P20138 22-259); experiment: BLI Octet, IgG captured on AHC, CD33 analyte
Method: as §1

human CD33 A65S, sequence (P20138 18-364 A65S limits assumed): as the sequence (P20138 18-364 C36A limits assumed) above, with A19C, A48S counted along it

B1: Refmab #1 (antibody, V domains shown)
VH: EVQLVQSGAEVKKPGSSVKVSCKASGYTITDSNIHWVRQAPGQSLEWIGYIYPYNGGTDYNQKFKNRATLTVDNPTNTAYMELSSLRSEDTAFYYCVNGNPWLAYWGQGTLVTVSS
VL: DIQLTQSPSTLSASVGDRVTITCRASESLDNYGIRFLTWFQQKPGKAPKLLMYAASNQGSGVPSRFSGSGSGTEFTLTISSLQPDDFATYYCQQTKEVPWSFGQGTKVEVK
notes: Full-length format is human IgG1 (Absolute Antibody Ab00283-10.0); The alanine scan used IgG or Fab; also called hP67.6
**Q.** What does the source list for B1?
**A.** Mean % WT Binding (human CD33 A65S): 88.5 % WT; Mean % WT Binding (human CD33 S54A): 87.6 % WT; Mean % WT Binding (human CD33 C36A): 72.6 % WT; Mean % WT Binding (human CD33 Y50A): 86 % WT; Mean % WT Binding (human CD33 T75A): 101 % WT; Mean % WT Binding (human CD33 L35A): 89.1 % WT; Mean % WT Binding (human CD33 V73A): 73.6 % WT; Mean % WT Binding (human CD33 L23A): 82.7 % WT; Mean % WT Binding (human CD33 R89A): 77.6 % WT; Mean % WT Binding (human CD33 Q26A): 81.4 % WT; Mean % WT Binding (human CD33 S71A): 108 % WT; Mean % WT Binding (human CD33 P72A): 99.9 % WT; Mean % WT Binding (human CD33 F44A): 85.1 % WT; Mean % WT Binding (human CD33 L38A): 94.8 % WT; Mean % WT Binding (human CD33 Y49A): 106 % WT; Mean % WT Binding (human CD33 E33A): 86.4 % WT; Mean % WT Binding (human CD33 E27A): 82.5 % WT; Mean % WT Binding (human CD33 V25A): 90.7 % WT; Mean % WT Binding (human CD33 D70A): 81.3 % WT; Mean % WT Binding (human CD33 T42A): 105 % WT; Mean % WT Binding (human CD33 Q87A): 91 % WT; Mean % WT Binding (human CD33 P48A): 86.2 % WT; Mean % WT Binding (human CD33 F21A): 0.4 % WT; Mean % WT Binding (human CD33 I66A): 96.6 % WT; Mean % WT Binding (human CD33 V37A): 78.7 % WT; Mean % WT Binding (human CD33 Q32A): 87 % WT; Mean % WT Binding (human CD33 Q83A): 87.1 % WT; Mean % WT Binding (human CD33 Y59A): 93.6 % WT; Mean % WT Binding (human CD33 N76A): 61.8 % WT; Mean % WT Binding (human CD33 D51A): 82.4 % WT; Mean % WT Binding (human CD33 L78A): 87.4 % WT; Mean % WT Binding (human CD33 V39A): 80 % WT

B2: Refmab #1 (antibody, human IgG1, V domains shown)
VH: B1 VH
VL: B1 VL
notes: also called hP67.6; Absolute Antibody Cat. No. Ab00283-10.0
**Q.** B2 was tested. Which “% WT binding” value [1] did it give?
**A.** The value was 18.6%.

**Q.** And the “% WT binding” value [2]?
**A.** The value was 0%.

**Q.** What about the “% WT binding” value [3] of the same binder?
**A.** The value was 106%.

**Q.** What about the “% WT binding” value [4] of the same binder?
**A.** Its value is 37.8%.

**Q.** And the “% WT binding” value [5]?
**A.** Its value is 75.5%.

**Q.** What about the “% WT binding” value [6] of the same binder?
**A.** Its value is 121%.

**Q.** And the “% WT binding” value [7]?
**A.** The value was 0%.
